# B1: Protein P-30 wild type, P22069 (protein)
# chain: QDWLTFQKKHITNTRDVDCDNIMSTNLFHCKDKNTFIYSRPEPVKAICKGIIASKNVLTTSEFYLSDCNVTSRPCKYKLKKSTNKFCVTCENQAPVHFVGVGSC
# Details: Lithobates pipiens, MES 100 mM, reversible: yes, whole UniProt chain shown; for unfolding free energy / denaturant m value / denaturant midpoint (higher = more stable): 25 °C
protein,measurement,setting,value
B1,unfolding free energy,"pH 2, Thermal, DSC",8.84 kcal/mol
same,Tm,"pH 2, Thermal, DSC",69.5 °C
same,heat capacity change of unfolding,"pH 2, Thermal, DSC",1.48 kcal/mol/K
same,unfolding enthalpy (calorimetric),"pH 2, Thermal, DSC",102 kcal/mol
same,unfolding enthalpy (van 't Hoff),"pH 2, Thermal, DSC",105 kcal/mol
same,unfolding free energy,"pH 2.5, Thermal, DSC",9.54 kcal/mol
same,Tm,"pH 2.5, Thermal, DSC",72.6 °C
same,heat capacity change of unfolding,"pH 2.5, Thermal, DSC",1.31 kcal/mol/K
same,unfolding enthalpy (calorimetric),"pH 2.5, Thermal, DSC",105 kcal/mol
same,unfolding enthalpy (van 't Hoff),"pH 2.5, Thermal, DSC",104 kcal/mol
same,unfolding free energy,"pH 3, Thermal, DSC",10.8 kcal/mol
same,Tm,"pH 3, Thermal, DSC",76.5 °C
same,heat capacity change of unfolding,"pH 3, Thermal, DSC",1.43 kcal/mol/K
same,unfolding enthalpy (calorimetric),"pH 3, Thermal, DSC",112 kcal/mol
same,unfolding enthalpy (van 't Hoff),"pH 3, Thermal, DSC",110 kcal/mol
same,unfolding free energy,"pH 3.5, Thermal, DSC",12.2 kcal/mol
same,Tm,"pH 3.5, Thermal, DSC",81.6 °C
same,heat capacity change of unfolding,"pH 3.5, Thermal, DSC",1.36 kcal/mol/K
same,unfolding enthalpy (calorimetric),"pH 3.5, Thermal, DSC",120 kcal/mol
same,unfolding enthalpy (van 't Hoff),"pH 3.5, Thermal, DSC",118 kcal/mol
same,unfolding free energy,"pH 4, Thermal, DSC",13.5 kcal/mol
same,Tm,"pH 4, Thermal, DSC",86.8 °C
same,heat capacity change of unfolding,"pH 4, Thermal, DSC",1.24 kcal/mol/K
same,unfolding enthalpy (calorimetric),"pH 4, Thermal, DSC",125 kcal/mol
same,unfolding enthalpy (van 't Hoff),"pH 4, Thermal, DSC",127 kcal/mol
same,unfolding free energy,"pH 5, Thermal, DSC",14.1 kcal/mol
same,Tm,"pH 5, Thermal, DSC",88.3 °C
same,heat capacity change of unfolding,"pH 5, Thermal, DSC",1.53 kcal/mol/K
same,unfolding enthalpy (calorimetric),"pH 5, Thermal, DSC",129 kcal/mol
same,unfolding enthalpy (van 't Hoff),"pH 5, Thermal, DSC",132 kcal/mol
same,denaturant m value,"pH 6, GdnHCl, CD",3.13 kcal/mol/M
same,denaturant midpoint (higher = more stable),"pH 6, GdnHCl, CD",4.5 M
same,unfolding free energy,"pH 6, GdnHCl, CD",14.1 kcal/mol
same,denaturant m value,"pH 6, GdnHCl, Fluorescence",3.08 kcal/mol/M
same,denaturant midpoint (higher = more stable),"pH 6, GdnHCl, Fluorescence",4.5 M
same,unfolding free energy,"pH 6, GdnHCl, Fluorescence",13.9 kcal/mol
same,unfolding free energy,"pH 6, Thermal, DSC",14.2 kcal/mol
same,Tm,"pH 6, Thermal, DSC",88.7 °C
same,heat capacity change of unfolding,"pH 6, Thermal, DSC",1.31 kcal/mol/K
same,unfolding enthalpy (calorimetric),"pH 6, Thermal, DSC",129 kcal/mol
same,unfolding enthalpy (van 't Hoff),"pH 6, Thermal, DSC",128 kcal/mol
same,unfolding free energy,"pH 7, Thermal, DSC",13.7 kcal/mol
same,Tm,"pH 7, Thermal, DSC",87.8 °C
same,heat capacity change of unfolding,"pH 7, Thermal, DSC",1.43 kcal/mol/K
same,unfolding enthalpy (calorimetric),"pH 7, Thermal, DSC",127 kcal/mol
same,unfolding enthalpy (van 't Hoff),"pH 7, Thermal, DSC",123 kcal/mol
same,unfolding free energy,"pH 8, Thermal, DSC",13 kcal/mol
same,Tm,"pH 8, Thermal, DSC",85.4 °C
same,heat capacity change of unfolding,"pH 8, Thermal, DSC",1.39 kcal/mol/K
same,unfolding enthalpy (calorimetric),"pH 8, Thermal, DSC",123 kcal/mol
same,unfolding enthalpy (van 't Hoff),"pH 8, Thermal, DSC",127 kcal/mol

# Source: FireProtDB (doi:10.1021/bi000415x)
